This passage reports Kd results from PMC12269619.

Broadly, the Kd is the concentration at which binding is half-saturated. Read a low Kd as higher affinity.

In test [1] the target is PfCSPm. As to the kind of experiment: BLI; KD1.
In test [2] the target is Biotinylated junctional peptide NPDP19 (Plasmodium falciparum (clone 3D7)) (UniProt Q7K740). As to the kind of experiment: BLI.
Test [3] deals with PfCSPm. As to the kind of experiment: BLI; KD2, second site.

Regarding CIS43 mature, the Kd in the test with PfCSPm [1] was found to be 45.2 nM; in test [2], 8.6 nM; with PfCSPm [3] it was 1300 nM.
